Assay results as given in article PMC9286290, “Active PD-L1 incorporation within HIV virions functionally impairs T follicular helper cells” (PLoS Pathogens, 2022).

Molecular target: T1, recombinant full-length PD-L1 protein (Phe19-Thr290) (UniProt Q9NZQ7 19-290)
T1 construct: Programmed Death-Ligand 1 (PD-L1), residues Phe19-Thr290; also called flPD-L1; source: bought: Amsbio (TP710226)
Experiment: BLI; FortéBio Octet K2; p17 or p24 immobilised on aminopropylsilane biosensors, saturated with BSA; association and dissociation 8 min each; PBS with 0.01% BSA and 0.002% Tween-20, 1,000 rpm; for kinetics flPD-L1 from 0 to 450 nM, BSA as reference, 1:1 model
Details: both partners purified

T1 sequence (Q9NZQ7 19-290): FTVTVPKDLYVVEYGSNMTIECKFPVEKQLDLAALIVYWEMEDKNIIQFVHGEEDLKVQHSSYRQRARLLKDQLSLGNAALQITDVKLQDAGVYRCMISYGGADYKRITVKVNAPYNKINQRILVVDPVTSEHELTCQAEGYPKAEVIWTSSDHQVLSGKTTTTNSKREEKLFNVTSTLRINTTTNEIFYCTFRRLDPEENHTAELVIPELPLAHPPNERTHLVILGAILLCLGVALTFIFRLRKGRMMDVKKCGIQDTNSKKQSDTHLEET

B1: p17 HIV matrix protein (natural protein)
chain: GARASVLSGGELDRWEKIRLRPGGKKKYKLKHIVWASRELERFAVNPGLLETSEGCRQILGQLQPSLQTGSEELRSLYNTVATLYCVHQRIEIKDTKEALDKIEEEQNKSKKKAQQAAADTGHSNQVSQNY
Kd: 0.3 nM
